For the data set, the target named is T1, GST-ZPR1 (human, UniProt O75312 1-459).
T1 sequence: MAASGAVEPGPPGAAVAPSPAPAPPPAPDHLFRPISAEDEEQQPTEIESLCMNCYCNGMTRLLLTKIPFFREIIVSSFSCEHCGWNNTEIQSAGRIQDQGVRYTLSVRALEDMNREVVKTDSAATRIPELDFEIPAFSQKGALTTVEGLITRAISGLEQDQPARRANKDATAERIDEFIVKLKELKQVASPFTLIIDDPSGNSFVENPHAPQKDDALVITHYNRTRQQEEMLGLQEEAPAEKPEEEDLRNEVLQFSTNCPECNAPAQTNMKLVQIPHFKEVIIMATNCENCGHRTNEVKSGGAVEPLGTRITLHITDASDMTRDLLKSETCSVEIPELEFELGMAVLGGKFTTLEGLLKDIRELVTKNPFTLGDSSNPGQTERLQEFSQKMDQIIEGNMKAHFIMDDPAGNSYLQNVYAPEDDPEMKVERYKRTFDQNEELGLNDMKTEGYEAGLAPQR
Briefly: EMSA. (In EMSA bound probe runs differently from free probe, usually more slowly.)

As to CGAAACTACCTTCAACTCCATCATGAAGTGTGACGTGGAC (ssDNA) [DNA* 40 nt], the binding result is listed as “binds”.
